Tests used:
[1] = molecular target: wild-type cystic fibrosis transmembrane conductance regulator (CFTR) (Homo sapiens (Human)) (UniProt P13569); assay: CFTR co-IP, MudPIT MS; cell line not stated
[2] = molecular target: wild-type cystic fibrosis transmembrane conductance regulator (CFTR) (Homo sapiens (Human)) (UniProt P13569); assay: CFTR co-IP, MudPIT MS; BHK wt
[3] = molecular target: ΔF508 CFTR (Homo sapiens (Human)) (UniProt P13569); assay: CFTR co-IP, MudPIT MS; BHK ΔF508
[4] = molecular target: ΔF508 CFTR (Homo sapiens (Human)) (UniProt P13569); assay: CFTR co-IP, MudPIT MS; ΔF508

Chain of wild-type cystic fibrosis transmembrane conductance regulator (CFTR) (Homo sapiens (Human)) (P13569 whole entry): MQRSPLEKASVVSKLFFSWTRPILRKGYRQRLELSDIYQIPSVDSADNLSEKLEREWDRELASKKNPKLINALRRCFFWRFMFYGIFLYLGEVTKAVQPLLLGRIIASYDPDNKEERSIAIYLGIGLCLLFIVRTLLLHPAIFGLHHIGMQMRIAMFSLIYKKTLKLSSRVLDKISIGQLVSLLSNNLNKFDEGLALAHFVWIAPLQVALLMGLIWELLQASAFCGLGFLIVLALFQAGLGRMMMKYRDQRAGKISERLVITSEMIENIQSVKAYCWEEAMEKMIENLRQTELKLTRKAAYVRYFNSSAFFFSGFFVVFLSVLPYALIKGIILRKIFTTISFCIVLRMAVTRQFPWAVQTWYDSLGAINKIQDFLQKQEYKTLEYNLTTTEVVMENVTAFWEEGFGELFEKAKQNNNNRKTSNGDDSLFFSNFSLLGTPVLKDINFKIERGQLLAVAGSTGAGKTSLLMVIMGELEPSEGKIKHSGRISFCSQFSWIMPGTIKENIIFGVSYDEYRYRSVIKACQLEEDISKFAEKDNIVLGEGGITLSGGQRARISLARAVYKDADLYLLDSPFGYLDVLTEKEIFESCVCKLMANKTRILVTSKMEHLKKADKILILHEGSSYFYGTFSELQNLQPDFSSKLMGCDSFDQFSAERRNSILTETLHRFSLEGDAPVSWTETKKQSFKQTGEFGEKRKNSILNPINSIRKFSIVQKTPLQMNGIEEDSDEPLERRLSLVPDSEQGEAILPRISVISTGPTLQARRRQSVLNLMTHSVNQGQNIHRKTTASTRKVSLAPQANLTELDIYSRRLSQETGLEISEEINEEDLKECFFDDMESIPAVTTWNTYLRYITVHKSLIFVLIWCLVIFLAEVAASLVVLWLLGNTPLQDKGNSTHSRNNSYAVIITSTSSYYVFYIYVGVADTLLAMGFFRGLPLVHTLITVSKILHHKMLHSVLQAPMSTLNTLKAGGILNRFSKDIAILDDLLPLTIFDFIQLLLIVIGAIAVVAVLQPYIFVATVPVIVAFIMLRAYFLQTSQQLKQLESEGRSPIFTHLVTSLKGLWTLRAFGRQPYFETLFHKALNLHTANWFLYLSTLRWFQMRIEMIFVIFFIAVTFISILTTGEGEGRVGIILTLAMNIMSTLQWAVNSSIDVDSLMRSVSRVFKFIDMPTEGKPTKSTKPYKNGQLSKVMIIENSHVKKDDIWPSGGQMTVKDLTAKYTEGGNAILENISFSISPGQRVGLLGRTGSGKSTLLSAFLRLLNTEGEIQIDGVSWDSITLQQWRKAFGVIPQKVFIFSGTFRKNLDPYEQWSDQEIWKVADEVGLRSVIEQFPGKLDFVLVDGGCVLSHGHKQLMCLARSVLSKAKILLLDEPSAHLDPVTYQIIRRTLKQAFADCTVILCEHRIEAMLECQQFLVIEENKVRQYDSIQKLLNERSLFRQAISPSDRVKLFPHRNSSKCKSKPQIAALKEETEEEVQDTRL
Chain of ΔF508 CFTR (Homo sapiens (Human)) (P13569 other isoform, or with tags, fused parts or gaps mutant limits assumed): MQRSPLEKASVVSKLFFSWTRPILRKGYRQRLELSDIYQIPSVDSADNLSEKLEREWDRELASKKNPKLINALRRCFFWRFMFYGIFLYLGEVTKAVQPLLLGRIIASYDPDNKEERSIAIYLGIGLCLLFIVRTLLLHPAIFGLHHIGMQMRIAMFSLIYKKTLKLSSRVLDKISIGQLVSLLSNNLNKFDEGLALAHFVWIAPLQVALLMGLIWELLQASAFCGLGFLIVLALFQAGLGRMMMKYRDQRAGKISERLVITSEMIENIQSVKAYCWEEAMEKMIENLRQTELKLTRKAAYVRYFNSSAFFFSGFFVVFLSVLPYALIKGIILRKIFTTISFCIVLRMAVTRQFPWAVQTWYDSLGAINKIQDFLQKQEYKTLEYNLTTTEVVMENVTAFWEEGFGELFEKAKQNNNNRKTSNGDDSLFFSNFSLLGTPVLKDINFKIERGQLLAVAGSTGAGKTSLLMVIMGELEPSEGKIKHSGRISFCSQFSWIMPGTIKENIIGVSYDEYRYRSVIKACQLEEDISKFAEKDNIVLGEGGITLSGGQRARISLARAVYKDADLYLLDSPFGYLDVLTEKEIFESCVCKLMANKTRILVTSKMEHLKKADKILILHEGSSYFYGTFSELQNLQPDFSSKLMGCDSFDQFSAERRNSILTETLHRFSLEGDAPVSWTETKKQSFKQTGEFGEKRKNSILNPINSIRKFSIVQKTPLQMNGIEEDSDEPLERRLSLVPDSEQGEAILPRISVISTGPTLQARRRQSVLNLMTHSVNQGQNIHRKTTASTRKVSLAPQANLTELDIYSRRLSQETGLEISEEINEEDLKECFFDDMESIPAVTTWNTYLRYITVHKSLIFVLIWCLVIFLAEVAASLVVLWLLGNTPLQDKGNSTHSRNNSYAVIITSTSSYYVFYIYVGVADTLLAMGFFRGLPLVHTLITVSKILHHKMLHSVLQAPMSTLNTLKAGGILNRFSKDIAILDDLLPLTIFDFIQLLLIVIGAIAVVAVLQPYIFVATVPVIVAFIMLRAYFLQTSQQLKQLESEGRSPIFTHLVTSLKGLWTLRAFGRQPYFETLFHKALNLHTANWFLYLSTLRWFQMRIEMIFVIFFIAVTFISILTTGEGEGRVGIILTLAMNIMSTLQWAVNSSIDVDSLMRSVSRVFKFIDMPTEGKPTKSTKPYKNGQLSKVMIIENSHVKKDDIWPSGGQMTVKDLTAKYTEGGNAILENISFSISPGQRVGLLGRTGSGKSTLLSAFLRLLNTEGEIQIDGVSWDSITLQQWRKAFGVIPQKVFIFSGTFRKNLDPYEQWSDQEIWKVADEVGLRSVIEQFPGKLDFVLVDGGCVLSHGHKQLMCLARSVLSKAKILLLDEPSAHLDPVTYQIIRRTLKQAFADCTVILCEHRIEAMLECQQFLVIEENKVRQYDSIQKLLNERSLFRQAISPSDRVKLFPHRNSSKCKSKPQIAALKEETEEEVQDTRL

Substance | % sequence coverage [1] | total peptide spectra [1] | unique peptide spectra [1] | % sequence coverage [2] | total spectra [2] | unique spectra [2] | % sequence coverage [3] | total spectra [3] | unique spectra [3] | other results
ARF4 (from UniProt P61750 2-180) | 16% | 4 spectra | 2 spectra |  |  |  |  |  |  | 
Aha1, activator of heat shock 90 kDa protein ATPase homolog 1 (from UniProt O95433 1-338) |  |  |  | 34% | 20 spectra | 10 spectra | 15% | 15 spectra | 7 spectra | 
BAG-2 (from UniProt O95816 2-211) |  |  |  | 10% | 2 spectra | 2 spectra | 28% | 20 spectra | 7 spectra | 
BAG-3 (from UniProt Q9JLV1 2-577) |  |  |  |  |  |  | 12% | 5 spectra | 4 spectra | 
CLCA1 (from UniProt A8K7I4 22-914) | 2% | 2 spectra | 2 spectra |  |  |  |  |  |  | 
Calumenin (from UniProt O43852 20-315) |  |  |  | 7% | 3 spectra | 3 spectra |  |  |  | 
Cdc37 (from UniProt Q61081 1-379) |  |  |  |  |  |  | 8% | 3 spectra | 2 spectra | 
DnaJ-like protein (from UniProt P63036 1-394) |  |  |  |  |  |  | 34% | 35 spectra | 11 spectra | 
FKBP38 (from UniProt O35465 1-402) |  |  |  |  |  |  | 17% | 5 spectra | 4 spectra | 
GRP75 (from UniProt P38647 47-679) |  |  |  |  |  |  | 34% | 40 spectra | 23 spectra | 
GRP78 (from UniProt P20029 20-655) |  |  |  | 33% | 37 spectra | 17 spectra | 40% | 85 spectra | 30 spectra | 
Hsc70 (from UniProt P63018 2-646) |  |  |  | 48% | 132 spectra | 39 spectra |  |  |  | 
Hsc-Hsp70/Hsp90 organizing protein (HOP) (from UniProt Q60864 1-543) |  |  |  |  |  |  | 11% | 4 spectra | 4 spectra | 
Hsp40-A1 (Hdj2) (from UniProt P31689 1-394) |  |  |  | 40% | 25 spectra | 13 spectra | 31% | 33 spectra | 10 spectra | 
Hsp40-A2 (Hdj3) (from UniProt O60884 1-409) |  |  |  | 28% | 16 spectra | 6 spectra | 32% | 19 spectra | 9 spectra | 
Hsp70-1A (from UniProt P0DMV8 2-641) |  |  |  | 8% | 6 spectra | 4 spectra | 19% | 20 spectra | 12 spectra | 
Hsp70-2 (from UniProt P54652 1-639) |  |  |  | 8% | 17 spectra | 7 spectra | 16% | 57 spectra | 23 spectra | 
Hsp70B′ (from UniProt P17066 1-643) |  |  |  | 3% | 5 spectra | 3 spectra | 10% | 14 spectra | 8 spectra | 
Hsp90, alpha (from UniProt P07900 2-732) |  |  |  | 6% | 5 spectra | 4 spectra | 39% | 37 spectra | 24 spectra | 
Hsp90β (from UniProt P11499 2-724) |  |  |  | 21% | 18 spectra | 11 spectra | 36% | 49 spectra | 24 spectra | 

Substance | % sequence coverage [1] | total peptide spectra [1] | unique peptide spectra [1] | % sequence coverage [2] | total spectra [2] | unique spectra [2] | % sequence coverage [3] | total spectra [3] | unique spectra [3] | other results
Hsp105 (from UniProt Q61699 2-858) |  |  |  |  |  |  | 10% | 6 spectra | 5 spectra | 
RalBP1 associated Eps domain containing protein (Reps1) (from UniProt O54916 1-795) | 6% | 2 spectra | 2 spectra |  |  |  |  |  |  | 
Reticulocalbin 2 (from UniProt Q8BP92 26-320) |  |  |  | 22% | 12 spectra | 6 spectra | 9% | 4 spectra | 3 spectra | 
Reticulocalbin (from UniProt Q05186 24-325) |  |  |  | 50% | 19 spectra | 14 spectra | 27% | 8 spectra | 5 spectra | 
TCP1 (from UniProt P11983 1-556) |  |  |  | 9% | 5 spectra | 3 spectra | 10% | 5 spectra | 3 spectra | 
VCP (RefSeq NM_009503) (from UniProt Q01853 2-806) | 7% | 2 spectra | 2 spectra |  |  |  |  |  |  | 
VPS 4A (from UniProt Q9UN37 1-437) | 5% | 2 spectra | 2 spectra |  |  |  |  |  |  | 
clathrin, light chain (from UniProt O08585 1-235) | 13% | 11 spectra | 3 spectra |  |  |  |  |  |  | 
cyclophilin B (from UniProt P23284 34-216) |  |  |  |  |  |  | 13% | 2 spectra | 2 spectra | 
disabled homolog 2 (Dab2) (from UniProt P98078 2-766) | 5% | 3 spectra | 3 spectra |  |  |  |  |  |  | 
enthoprotin (from UniProt Q14677 1-625) | 9% | 5 spectra | 4 spectra |  |  |  |  |  |  | 
flotillin 2 (from UniProt Q60634 2-428) | 5% | 2 spectra | 2 spectra |  |  |  |  |  |  | 
p23 (from UniProt Q15185 1-160) |  |  |  |  |  |  | 16% | 2 spectra | 2 spectra | 
proteasome 26S, ATPase 3 (from UniProt O88685 1-442) |  |  |  |  |  |  |  |  |  | % sequence coverage [4]: 8%; total peptide spectra [4]: 3 spectra; unique peptide spectra [4]: 2 spectra
proteasome 26S, ATPase, 4 (from UniProt P43686 1-418) |  |  |  |  |  |  |  |  |  | % sequence coverage [4]: 12%; total peptide spectra [4]: 3 spectra; unique peptide spectra [4]: 2 spectra
proteasome 26S, non-ATPase, 11 (from UniProt O00231 2-422) |  |  |  |  |  |  |  |  |  | % sequence coverage [4]: 5%; total peptide spectra [4]: 2 spectra; unique peptide spectra [4]: 2 spectra
sortilin-related receptor L (SORL1) (from UniProt Q92673 82-2214) | 1% | 12 spectra | 1 spectra |  |  |  |  |  |  | 
sorting nexin 4 (from UniProt O95219 1-450) | 3% | 5 spectra | 3 spectra |  |  |  |  |  |  | 
sorting nexin 9 (from UniProt Q9Y5X1 1-595) | 5% | 2 spectra | 2 spectra |  |  |  |  |  |  | 
βCOP (from UniProt P53618 2-953) | 5% | 2 spectra | 2 spectra |  |  |  |  |  |  | 

Reference: patent US20080014191A1
